Our source for the Kd values is PMC10786891, “Massively parallel profiling of RNA-targeting CRISPR-Cas13d”.

To fix the notation:
B1: target 1 U11C,G13C (mixed)
RNA 1: CACCCGUGCAAAAAUGCAGGGGUCUAAAACUGAGCGGAUAACCUCUCUAUGG
RNA 2: GGGAAUGGAUCCACAUCUACGAAUUCGUACCAUAGAGACGCUAUCCGCUCACCGAGAUCGGAAGAGCACACGU
B2: target 1 C4G,U8C (mixed)
RNA 1: CACCCGUGCAAAAAUGCAGGGGUCUAAAACUGAGCGGAUAACCUCUCUAUGG
RNA 2: GGGAAUGGAUCCACAUCUACGAAUUCGUACCAUAGAGAGGUUACCCGGUCACCGAGAUCGGAAGAGCACACGU
B3: target 1 insA 3' of 13,insC 3' of 8 (mixed)
RNA 1: CACCCGUGCAAAAAUGCAGGGGUCUAAAACUGAGCGGAUAACCUCUCUAUGG
RNA 2: GGGAAUGGAUCCACAUCUACGAAUUCGUACCAUAGAGAGAGUUAUCCCGCUCACCGAGAUCGGAAGAGCACACGU
B4: target 1 U3C,U11G (mixed)
RNA 1: CACCCGUGCAAAAAUGCAGGGGUCUAAAACUGAGCGGAUAACCUCUCUAUGG
RNA 2: GGGAAUGGAUCCACAUCUACGAAUUCGUACCAUAGAGAGGGUAUCCGCCCACCGAGAUCGGAAGAGCACACGU
B5: target 1 insA 3' of 12,insA 3' of 12 (mixed)
RNA 1: CACCCGUGCAAAAAUGCAGGGGUCUAAAACUGAGCGGAUAACCUCUCUAUGG
RNA 2: GGGAAUGGAUCCACAUCUACGAAUUCGUACCAUAGAGAGGAAUUAUCCGCUCACCGAGAUCGGAAGAGCACACGU
B6: target 1 insC 3' of 15,insA 3' of 6 (mixed)
RNA 1: CACCCGUGCAAAAAUGCAGGGGUCUAAAACUGAGCGGAUAACCUCUCUAUGG
RNA 2: GGGAAUGGAUCCACAUCUACGAAUUCGUACCAUAGAGCAGGUUAUCCAGCUCACCGAGAUCGGAAGAGCACACGU
B7: target 1 U3G,C4G (mixed)
RNA 1: CACCCGUGCAAAAAUGCAGGGGUCUAAAACUGAGCGGAUAACCUCUCUAUGG
RNA 2: GGGAAUGGAUCCACAUCUACGAAUUCGUACCAUAGAGAGGUUAUCCGGGCACCGAGAUCGGAAGAGCACACGU
B8: target 1 insC 3' of 12,insA 3' of 3 (mixed)
RNA 1: CACCCGUGCAAAAAUGCAGGGGUCUAAAACUGAGCGGAUAACCUCUCUAUGG
RNA 2: GGGAAUGGAUCCACAUCUACGAAUUCGUACCAUAGAGAGGCUUAUCCGCUACACCGAGAUCGGAAGAGCACACGU
B9: target 1 insC 3' of 14,insU 3' of 6 (mixed)
RNA 1: CACCCGUGCAAAAAUGCAGGGGUCUAAAACUGAGCGGAUAACCUCUCUAUGG
RNA 2: GGGAAUGGAUCCACAUCUACGAAUUCGUACCAUAGAGACGGUUAUCCUGCUCACCGAGAUCGGAAGAGCACACGU
B10: target 1 A1G,C7A (mixed)
RNA 1: CACCCGUGCAAAAAUGCAGGGGUCUAAAACUGAGCGGAUAACCUCUCUAUGG
RNA 2: GGGAAUGGAUCCACAUCUACGAAUUCGUACCAUAGAGAGGUUAUACGCUCGCCGAGAUCGGAAGAGCACACGU
B11: target 1 insC 3' of 19,insC 3' of 15 (mixed)
RNA 1: CACCCGUGCAAAAAUGCAGGGGUCUAAAACUGAGCGGAUAACCUCUCUAUGG
RNA 2: GGGAAUGGAUCCACAUCUACGAAUUCGUACCAUCAGAGCAGGUUAUCCGCUCACCGAGAUCGGAAGAGCACACGU
B12: target 1 C4G,G13A (mixed)
RNA 1: CACCCGUGCAAAAAUGCAGGGGUCUAAAACUGAGCGGAUAACCUCUCUAUGG
RNA 2: GGGAAUGGAUCCACAUCUACGAAUUCGUACCAUAGAGAAGUUAUCCGGUCACCGAGAUCGGAAGAGCACACGU
B13: target 1 insA 3' of 17,insU 3' of 13 (mixed)
RNA 1: CACCCGUGCAAAAAUGCAGGGGUCUAAAACUGAGCGGAUAACCUCUCUAUGG
RNA 2: GGGAAUGGAUCCACAUCUACGAAUUCGUACCAUAGAAGAGUGUUAUCCGCUCACCGAGAUCGGAAGAGCACACGU
B14: target 1 insC 3' of 20,insA 3' of 19 (mixed)
RNA 1: CACCCGUGCAAAAAUGCAGGGGUCUAAAACUGAGCGGAUAACCUCUCUAUGG
RNA 2: GGGAAUGGAUCCACAUCUACGAAUUCGUACCACUAAGAGAGGUUAUCCGCUCACCGAGAUCGGAAGAGCACACGU
B15: target 1 C4A,U11C (mixed)
RNA 1: CACCCGUGCAAAAAUGCAGGGGUCUAAAACUGAGCGGAUAACCUCUCUAUGG
RNA 2: GGGAAUGGAUCCACAUCUACGAAUUCGUACCAUAGAGAGGCUAUCCGAUCACCGAGAUCGGAAGAGCACACGU
B16: target 1 U3C,C4U (mixed)
RNA 1: CACCCGUGCAAAAAUGCAGGGGUCUAAAACUGAGCGGAUAACCUCUCUAUGG
RNA 2: GGGAAUGGAUCCACAUCUACGAAUUCGUACCAUAGAGAGGUUAUCCGUCCACCGAGAUCGGAAGAGCACACGU
B17: target 1 insU 3' of 7,insC 3' of 5 (mixed)
RNA 1: CACCCGUGCAAAAAUGCAGGGGUCUAAAACUGAGCGGAUAACCUCUCUAUGG
RNA 2: GGGAAUGGAUCCACAUCUACGAAUUCGUACCAUAGAGAGGUUAUCUCGCCUCACCGAGAUCGGAAGAGCACACGU
B18: target 1 C2A,G15A (mixed)
RNA 1: CACCCGUGCAAAAAUGCAGGGGUCUAAAACUGAGCGGAUAACCUCUCUAUGG
RNA 2: GGGAAUGGAUCCACAUCUACGAAUUCGUACCAUAGAAAGGUUAUCCGCUAACCGAGAUCGGAAGAGCACACGU
B19: target 1 U3A,C7U (mixed)
RNA 1: CACCCGUGCAAAAAUGCAGGGGUCUAAAACUGAGCGGAUAACCUCUCUAUGG
RNA 2: GGGAAUGGAUCCACAUCUACGAAUUCGUACCAUAGAGAGGUUAUUCGCACACCGAGAUCGGAAGAGCACACGU
B20: target 1 insC 3' of 19,insA 3' of 8 (mixed)
RNA 1: CACCCGUGCAAAAAUGCAGGGGUCUAAAACUGAGCGGAUAACCUCUCUAUGG
RNA 2: GGGAAUGGAUCCACAUCUACGAAUUCGUACCAUCAGAGAGGUUAUACCGCUCACCGAGAUCGGAAGAGCACACGU
B21: target 1 insU 3' of 21,insU 3' of 12 (mixed)
RNA 1: CACCCGUGCAAAAAUGCAGGGGUCUAAAACUGAGCGGAUAACCUCUCUAUGG
RNA 2: GGGAAUGGAUCCACAUCUACGAAUUCGUACCUAUAGAGAGGUUUAUCCGCUCACCGAGAUCGGAAGAGCACACGU
B22: target 1 A9G,C22U (mixed)
RNA 1: CACCCGUGCAAAAAUGCAGGGGUCUAAAACUGAGCGGAUAACCUCUCUAUGG
RNA 2: GGGAAUGGAUCCACAUCUACGAAUUCGUAUCAUAGAGAGGUUGUCCGCUCACCGAGAUCGGAAGAGCACACGU
B23: target 1 insC 3' of 14,insC 3' of 13 (mixed)
RNA 1: CACCCGUGCAAAAAUGCAGGGGUCUAAAACUGAGCGGAUAACCUCUCUAUGG
RNA 2: GGGAAUGGAUCCACAUCUACGAAUUCGUACCAUAGAGACGCGUUAUCCGCUCACCGAGAUCGGAAGAGCACACGU
B24: target 1 U3A,G15A (mixed)
RNA 1: CACCCGUGCAAAAAUGCAGGGGUCUAAAACUGAGCGGAUAACCUCUCUAUGG
RNA 2: GGGAAUGGAUCCACAUCUACGAAUUCGUACCAUAGAAAGGUUAUCCGCACACCGAGAUCGGAAGAGCACACGU
B25: target 1 insA 3' of 15,insA 3' of 6 (mixed)
RNA 1: CACCCGUGCAAAAAUGCAGGGGUCUAAAACUGAGCGGAUAACCUCUCUAUGG
RNA 2: GGGAAUGGAUCCACAUCUACGAAUUCGUACCAUAGAGAAGGUUAUCCAGCUCACCGAGAUCGGAAGAGCACACGU
B26: target 1 complement block 6-11 (mixed)
RNA 1: CACCCGUGCAAAAAUGCAGGGGUCUAAAACUGAGCGGAUAACCUCUCUAUGG
RNA 2: GGGAAUGGAUCCACAUCUACGAAUUCGUACCAUAGAGAGGAAUAGGGCUCACCGAGAUCGGAAGAGCACACGU
B27: target 1 insA 3' of 5,insA 3' of 5 (mixed)
RNA 1: CACCCGUGCAAAAAUGCAGGGGUCUAAAACUGAGCGGAUAACCUCUCUAUGG
RNA 2: GGGAAUGGAUCCACAUCUACGAAUUCGUACCAUAGAGAGGUUAUCCGAACUCACCGAGAUCGGAAGAGCACACGU

For the data set, the target named is T1, EsCas13d, nuclease-dead (Eubacterium siraeum, UniProt B0MS50, R295A;H300A;R849A;H854A).
T1 sequence: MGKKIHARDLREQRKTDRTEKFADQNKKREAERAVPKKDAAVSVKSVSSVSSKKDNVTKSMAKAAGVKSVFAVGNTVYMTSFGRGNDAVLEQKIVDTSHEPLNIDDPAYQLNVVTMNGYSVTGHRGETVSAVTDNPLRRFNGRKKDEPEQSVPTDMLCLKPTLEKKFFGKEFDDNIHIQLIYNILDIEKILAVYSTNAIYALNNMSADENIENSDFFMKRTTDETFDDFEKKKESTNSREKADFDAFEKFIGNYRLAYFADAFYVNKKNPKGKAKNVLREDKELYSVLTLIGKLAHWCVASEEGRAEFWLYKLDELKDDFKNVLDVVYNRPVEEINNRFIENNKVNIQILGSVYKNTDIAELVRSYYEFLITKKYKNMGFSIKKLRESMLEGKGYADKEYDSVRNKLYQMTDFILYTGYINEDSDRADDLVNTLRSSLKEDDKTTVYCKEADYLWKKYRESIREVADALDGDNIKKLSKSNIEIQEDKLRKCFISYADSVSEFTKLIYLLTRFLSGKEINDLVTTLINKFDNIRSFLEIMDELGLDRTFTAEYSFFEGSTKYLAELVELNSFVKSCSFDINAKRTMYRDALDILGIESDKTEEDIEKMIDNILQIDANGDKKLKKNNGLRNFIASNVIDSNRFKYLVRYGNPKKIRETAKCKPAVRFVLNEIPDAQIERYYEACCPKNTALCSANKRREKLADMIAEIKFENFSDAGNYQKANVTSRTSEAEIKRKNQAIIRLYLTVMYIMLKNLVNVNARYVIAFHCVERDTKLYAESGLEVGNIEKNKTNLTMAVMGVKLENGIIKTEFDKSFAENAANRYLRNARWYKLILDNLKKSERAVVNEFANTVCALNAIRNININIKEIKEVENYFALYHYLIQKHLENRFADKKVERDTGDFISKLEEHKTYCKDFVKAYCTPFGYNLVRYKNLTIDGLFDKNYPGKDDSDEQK
The data set can be described thus: crRNA (strand 1, pre-loaded); Mg2+; 40 mM Tris-HCl pH 7.5, 150 mM NaCl, 6 mM MgCl2, 1 mM DTT, 0.1% Tween-20, 0.2 mg/ml BSA; 25 C; 10 min per concentration, then washed. Conditions: tags: His6-TwinStrep-SUMO cleaved; N-terminal SNAP kept (SNAP-Surface 488); label: 3' end held by stalled T7 RNA polymerase.
On to B1, for which binding was characterised by a dissociation constant (Kd) of 62 ± 23 nM.
Under B2 stands 4.64 ± 0.25 nM; under B3, 6.4 ± 0.8 nM; under B4, 35 ± 4 nM.
As to B5, the dissociation constant (Kd) (commonly the free concentration of one partner at which half of the binding sites on the other are occupied at equilibrium, for simple one-to-one binding) is 14.3 ± 0.7 nM.
In turn, B6 displayed an equilibrium dissociation constant (Kd) of 22.4 ± 1.5 nM. This Kd lies about 1.6-fold higher than the previous one.
Regarding B7, the equilibrium dissociation constant (Kd) came out at 5.2 ± 0.4 nM.
Regarding B8, binding was put at a Kd of 9.3 ± 0.8 nM.
The figure for B9 is 53 ± 25 nM; for B10 it is 8.7 ± 0.5 nM.
Under B11 stands 45 ± 5 nM.
Under B12 stands 7.3 ± 0.9 nM.
B13: the Kd amounted to 22 ± 4 nM.
For the molecule B14, the dissociation constant (Kd) is 9.1 ± 1 nM.
With B15, the equilibrium dissociation constant (Kd) amounted to 10 ± 0.9 nM.
Regarding B16, the dissociation constant (Kd) amounted to 49 ± 8 nM.
For the molecule B17, the affinity, expressed as Kd, was 12.5 ± 0.5 nM.
The figure for B18 is 20.2 ± 0.9 nM; for B19 it is 5.4 ± 0.4 nM; for B20 it is 47 ± 4 nM.
The figure for B21 is 21.5 ± 1.3 nM.
The figure for B22 is 27.3 ± 2.3 nM; for B23 it is 53 ± 9 nM.
The molecule B24 had a Kd of 20 ± 4 nM.
In the case of B25, binding was put at a Kd of 14.4 ± 1.4 nM.
In the case of B26, the affinity, expressed as Kd, was 14.5 ± 1.2 nM.
The figure for B27 is 8.5 ± 0.7 nM.
